Data on one molecule can be found in publication PMC2946932 (PLoS ONE, 2010).

The term koff denotes the first-order rate constant of dissociation. A word on the kon: it is a measure of how fast the partners come together.

The assay deals with T1, extracellular domain of human BMP receptor type IA (BMPR-IAEC), wild type (human, UniProt P36894).
T1 construct: numbers count on: the mature protein; In the crystal only Pro34-Val118 were traced; also called BMPR-IA WT; BMPR-IA ectodomain; source: expressed as thioredoxin-fusion protein as described [16], purified
T1 sequence (P36894 24-152): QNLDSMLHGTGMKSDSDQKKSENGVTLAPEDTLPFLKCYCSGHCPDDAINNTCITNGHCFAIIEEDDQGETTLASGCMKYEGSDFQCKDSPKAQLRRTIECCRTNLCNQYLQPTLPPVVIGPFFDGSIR
Briefly: SPR; Biacore 2000, room temperature; biotinylated BMP-2 and Fabs immobilised on a streptavidin-coated CM5 chip; wildtype or mutant BMPR-IAEC as analyte at 1000, 500, 250, 125, 62.5 nM; HBS500 (10 mM HEPES, 500 mM NaCl pH 7.4, 3.4 mM EDTA, 0.005% surfactant P20), 10 µl/min; 1:1 Langmuir model; apparent KD from equilibrium binding and/or kon and koff. To be noted: both partners purified. (In general: Surface plasmon resonance follows binding to a sensor surface in real time, without labels.)

B1: Fab AbD1556 (Fab, V domains shown)
VH: QVQLVESGGGLVQPGGSLRLSCAASGFTFSNYTLNWVRQAPGKGLEWVSYTSSSGSLTGYADSVKGRFTISRDNSKNTLYLQMNSLRAEDTAVYYCARERWHVRGYFDHWGQGTLVTVSS
VL: DIELTQPPSVSVAPGQTARISCSGDSLGSKYVIWYQQKPGQAPVLVIYDDSNRPSGIPERFSGSNSGNTATLTISGTQAEDEADYYCSTFTMSGNGTVFGGGTKLTVL
notes: heavy chain of Fab AbD1556 (Gln1 to Phe224, then the Strep-Tag); light chain of Fab AbD1556 (Asp1 to Ala213); Human Fab of the HuCal library; Not biotinylated in the crystal; some residues of PDB 3NH7 are not modelled; source: obtained from AbD-Serotech (Martinsried), recombinant Fab selected from the HuCal phage library
For B1, the Kd turned out to be 20 nM, the off-rate constant (koff) is 0.0017 s⁻¹ and the on-rate constant (kon) was found to be 88000 M⁻¹ s⁻¹.
